# In paper doi:10.1101/2023.11.30.569392:
# T1: recTZF-WT (GST-TEV-TTP TZF) (Mus musculus, UniProt P22893 93-165)
# T1 sequence: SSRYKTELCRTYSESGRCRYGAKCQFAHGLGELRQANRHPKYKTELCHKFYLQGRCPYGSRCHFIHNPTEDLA
# Biological target: T1, recTZF-WT (GST-TEV-TTP TZF)
# Assay: EMSA
binder,measurement,value
AUUAUUUAUUAUUUAUUUAUUAUUUA (ssRNA) [Tnf-ARE],binding result,binds
